Reference: patent US7067277B1, “Chimeric G proteins and uses thereof” (H. Lundbeck A/S, priority 1999, dated 2006)
Residue numbers refer to the chain shown, from its start.

Experiments:
Assay in all cases: Calcium mobilization (FLIPR, Fluo-3) in transfected COS-7 cells
Assay type in all cases: cell-based
h NPFF2 = target: T1, h NPFF2 (Homo sapiens, UniProt Q9Y5X5); settings: h NPFF2 + chimera in COS-7; agonist NPFF, max 10 μM
T1 construct: expressed in transfected cells; host or cells: COS-7
Procedure, shortened: (§1)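 Assay buffer was HBSS with 20 mM HEPES (pH 7.4), 0.1% BSA and 2.5 mM probenecid, and cells were loaded with 4 μM Fluo-3. Transfected COS-7 cells carried receptor and chimeric G protein cDNA at 1:1 or 8:1:1 ratios. Peak fluorescence change gave Hill-fitted curves.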

r GALR2 = target: T2, r GALR2 (Rattus norvegicus, UniProt O08726); settings: r GALR2 + chimera in COS-7; agonist GAL, max 10 μM
T2 construct: expressed in transfected cells; host or cells: COS-7
T2 sequence (O08726 1-372): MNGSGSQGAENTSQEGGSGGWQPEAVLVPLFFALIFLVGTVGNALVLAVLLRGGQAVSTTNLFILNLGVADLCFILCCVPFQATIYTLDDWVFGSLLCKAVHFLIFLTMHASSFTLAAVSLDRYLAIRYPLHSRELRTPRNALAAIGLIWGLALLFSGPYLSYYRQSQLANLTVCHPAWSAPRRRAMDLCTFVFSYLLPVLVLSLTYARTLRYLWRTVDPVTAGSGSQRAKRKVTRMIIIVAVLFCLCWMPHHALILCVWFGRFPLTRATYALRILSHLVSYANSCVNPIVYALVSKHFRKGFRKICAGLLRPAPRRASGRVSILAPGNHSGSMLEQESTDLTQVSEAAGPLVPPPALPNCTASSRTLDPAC
Procedure, shortened: as §1

m 5HT5A = m 5HT5A (Mus musculus, UniProt P30966); settings: m 5HT5A + chimera in COS-7; agonist 5HT, max 100 μM
Procedure, shortened: as §1

h 5HT1A = target: T3, h 5HT1A (Homo sapiens, UniProt P08908); settings: h 5HT1A + chimera in COS-7; agonist 5HT, max 100 μM
T3 sequence (P08908 1-422): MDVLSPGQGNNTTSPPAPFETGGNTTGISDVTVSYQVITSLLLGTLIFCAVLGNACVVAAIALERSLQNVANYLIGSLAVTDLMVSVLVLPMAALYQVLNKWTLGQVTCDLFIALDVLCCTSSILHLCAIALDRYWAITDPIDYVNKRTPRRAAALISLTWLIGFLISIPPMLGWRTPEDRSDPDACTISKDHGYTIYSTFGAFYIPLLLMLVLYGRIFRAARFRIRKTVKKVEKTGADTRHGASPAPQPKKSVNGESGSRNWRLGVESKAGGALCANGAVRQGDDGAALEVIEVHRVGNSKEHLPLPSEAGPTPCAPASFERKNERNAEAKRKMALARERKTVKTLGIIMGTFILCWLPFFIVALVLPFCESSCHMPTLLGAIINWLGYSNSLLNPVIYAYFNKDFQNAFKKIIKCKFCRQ
Procedure, shortened: as §1

h MCH = h MCH (Homo sapiens, UniProt Q99705); settings: h MCH + chimera in COS-7; agonist MCH, max 10 μM
Procedure, shortened: as §1

h kappa = target: T4, h kappa (Homo sapiens, UniProt P41145); settings: h kappa + chimera in COS-7; agonist U-69593, max 100 μM
T4 construct: expressed in transfected cells; host or cells: COS-7
Procedure, shortened: as §1

h Y5 = target: T5, h Y5 (Homo sapiens, UniProt Q15761); settings: h Y5 + chimera in COS-7; agonist NPY, max 10 μM
T5 construct: expressed in transfected cells; host or cells: COS-7
T5 sequence (Q15761 1-445): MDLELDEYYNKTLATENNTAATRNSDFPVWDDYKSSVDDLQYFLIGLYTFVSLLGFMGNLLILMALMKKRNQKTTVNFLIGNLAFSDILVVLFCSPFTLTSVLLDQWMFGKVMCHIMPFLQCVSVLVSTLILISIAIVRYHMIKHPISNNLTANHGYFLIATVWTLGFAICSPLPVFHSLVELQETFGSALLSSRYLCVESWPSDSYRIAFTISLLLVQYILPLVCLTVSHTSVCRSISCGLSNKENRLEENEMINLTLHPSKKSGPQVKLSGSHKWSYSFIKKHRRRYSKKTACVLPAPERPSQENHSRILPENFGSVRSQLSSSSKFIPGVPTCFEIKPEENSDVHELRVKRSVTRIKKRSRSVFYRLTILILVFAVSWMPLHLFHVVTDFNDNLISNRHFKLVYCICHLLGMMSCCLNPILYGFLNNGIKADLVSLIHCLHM
Procedure, shortened: as §1

h D3 = h D3 (Homo sapiens, UniProt P35462); settings: h D3 + chimera in COS-7; agonist DA, max 100 μM
Procedure, shortened: as §1

r NTR1 = target: T6, r NTR1 (Rattus norvegicus, UniProt P20789); settings: r NTR1 + chimera in COS-7; agonist NT, max 1 μM
T6 construct: expressed in transfected cells; host or cells: COS-7
Procedure, shortened: as §1

m 5HT5A, sequence (P30966 whole entry): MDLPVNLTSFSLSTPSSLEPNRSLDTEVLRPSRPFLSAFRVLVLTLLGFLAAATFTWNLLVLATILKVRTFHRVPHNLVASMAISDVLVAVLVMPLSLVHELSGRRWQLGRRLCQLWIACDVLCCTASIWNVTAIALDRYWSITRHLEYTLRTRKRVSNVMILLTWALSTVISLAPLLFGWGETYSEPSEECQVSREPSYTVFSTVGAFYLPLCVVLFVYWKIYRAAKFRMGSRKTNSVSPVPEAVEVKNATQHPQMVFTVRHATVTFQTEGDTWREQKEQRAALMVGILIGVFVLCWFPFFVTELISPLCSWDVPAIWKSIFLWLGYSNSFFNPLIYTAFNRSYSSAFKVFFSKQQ
h MCH, sequence (Q99705 whole entry): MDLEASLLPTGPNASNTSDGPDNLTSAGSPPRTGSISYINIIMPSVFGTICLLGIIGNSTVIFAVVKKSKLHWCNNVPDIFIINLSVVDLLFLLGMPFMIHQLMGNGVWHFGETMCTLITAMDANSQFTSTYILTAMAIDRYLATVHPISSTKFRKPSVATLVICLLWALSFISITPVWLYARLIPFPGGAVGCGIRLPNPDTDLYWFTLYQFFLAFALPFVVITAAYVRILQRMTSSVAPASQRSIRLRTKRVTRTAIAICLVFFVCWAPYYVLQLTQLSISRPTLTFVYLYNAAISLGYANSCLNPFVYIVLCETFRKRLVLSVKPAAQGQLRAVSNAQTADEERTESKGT
T6 sequence (P20789 whole entry): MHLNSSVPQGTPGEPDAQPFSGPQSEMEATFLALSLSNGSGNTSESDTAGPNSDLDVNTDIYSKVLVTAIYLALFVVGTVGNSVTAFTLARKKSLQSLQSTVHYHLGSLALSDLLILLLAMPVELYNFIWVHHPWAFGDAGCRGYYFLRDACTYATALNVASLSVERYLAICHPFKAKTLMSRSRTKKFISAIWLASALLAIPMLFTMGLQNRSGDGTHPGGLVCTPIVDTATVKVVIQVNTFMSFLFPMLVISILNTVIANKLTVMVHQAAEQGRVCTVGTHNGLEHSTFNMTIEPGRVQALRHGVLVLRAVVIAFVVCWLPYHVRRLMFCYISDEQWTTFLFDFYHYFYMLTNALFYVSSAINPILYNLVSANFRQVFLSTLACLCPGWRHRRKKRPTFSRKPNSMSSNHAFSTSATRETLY
h D3, sequence (P35462 whole entry): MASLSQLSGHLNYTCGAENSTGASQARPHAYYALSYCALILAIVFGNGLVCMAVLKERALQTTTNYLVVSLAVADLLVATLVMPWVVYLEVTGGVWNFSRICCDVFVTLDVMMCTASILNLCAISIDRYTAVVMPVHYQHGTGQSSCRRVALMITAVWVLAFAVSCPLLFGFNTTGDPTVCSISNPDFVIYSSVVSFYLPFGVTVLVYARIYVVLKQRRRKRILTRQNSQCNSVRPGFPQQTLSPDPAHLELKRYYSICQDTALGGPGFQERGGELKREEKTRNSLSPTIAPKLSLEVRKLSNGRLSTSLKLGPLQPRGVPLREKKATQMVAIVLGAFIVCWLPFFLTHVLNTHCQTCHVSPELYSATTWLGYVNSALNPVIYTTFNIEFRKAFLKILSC
T1 sequence (Q9Y5X5 103-522 limits assumed): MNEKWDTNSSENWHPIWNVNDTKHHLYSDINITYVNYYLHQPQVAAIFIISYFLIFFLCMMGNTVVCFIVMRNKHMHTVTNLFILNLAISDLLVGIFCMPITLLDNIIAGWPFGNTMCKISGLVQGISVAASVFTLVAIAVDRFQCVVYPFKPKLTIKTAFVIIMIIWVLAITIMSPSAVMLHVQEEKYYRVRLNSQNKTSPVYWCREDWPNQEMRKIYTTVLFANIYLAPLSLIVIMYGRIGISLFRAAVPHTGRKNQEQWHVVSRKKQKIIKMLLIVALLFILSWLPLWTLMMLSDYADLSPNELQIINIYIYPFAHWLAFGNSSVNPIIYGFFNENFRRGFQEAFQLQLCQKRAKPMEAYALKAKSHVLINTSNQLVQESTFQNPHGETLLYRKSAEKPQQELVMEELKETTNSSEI
T4 sequence (P41145 whole entry): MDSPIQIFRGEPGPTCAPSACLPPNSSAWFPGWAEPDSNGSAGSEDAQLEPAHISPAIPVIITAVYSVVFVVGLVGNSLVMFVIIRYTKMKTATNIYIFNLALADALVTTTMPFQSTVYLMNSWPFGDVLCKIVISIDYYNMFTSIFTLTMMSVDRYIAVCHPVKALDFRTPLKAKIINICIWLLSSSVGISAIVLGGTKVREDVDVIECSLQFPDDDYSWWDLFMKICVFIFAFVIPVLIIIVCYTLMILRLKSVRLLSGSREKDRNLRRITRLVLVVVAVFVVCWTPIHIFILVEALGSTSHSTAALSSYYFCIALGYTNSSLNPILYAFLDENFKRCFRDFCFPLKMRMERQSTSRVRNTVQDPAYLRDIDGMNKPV

B1: cGαq/z5: chimeric Gα subunit: C-terminal final 5 amino acids of C. elegans Gαq replaced with those of hGαz (SEQ ID NO: 1) (protein)
chain: MACCLSEEAREQKRINQEIEKQLQRDKRNARRELKLLLLGTGESGKSTFIKQMRIIHGQGYSEEDKRAHIRLVYQNVFMAIQSMIRAMDTLDIKFGNESEELQEKAAVVREVDFESVTSFEEPYVSYIKELWEDSGIQECYDRRREYQLTDSAKYYLSDLRRLAVPDYLPTEQDILRVRVPTTGIIEYPFDLEQIIFRMVDVGGQRSERRKWIHCFENVTSIMFLVALSEYDQVLVECDNENRMEESKALFRTIITYPWFTNSSVILFLNKKDLLEEKILYSHLADYFPEYDGPPRDPIAAREFILKMFVDLNPDADKIIYSHFTCATDTENIRFVFAAVKDTILQHNLKYIGLC
modifications: C. elegans
MAXIMAL SIGNAL (FLUORESCENCE UNITS) (h NPFF2): 7566 fluorescence units | MAXIMAL SIGNAL (FLUORESCENCE UNITS) (r GALR2): 4198 fluorescence units | MAXIMAL SIGNAL (FLUORESCENCE UNITS) (m 5HT5A): 351 fluorescence units | MAXIMAL SIGNAL (FLUORESCENCE UNITS) (h 5HT1A): 1997 fluorescence units | MAXIMAL SIGNAL (FLUORESCENCE UNITS) (h MCH): 2699 fluorescence units | MAXIMAL SIGNAL (FLUORESCENCE UNITS) (h kappa): 5975 fluorescence units | MAXIMAL SIGNAL (FLUORESCENCE UNITS) (h Y5): 5314 fluorescence units | MAXIMAL SIGNAL (FLUORESCENCE UNITS) (h D3): 0 fluorescence units | MAXIMAL SIGNAL (FLUORESCENCE UNITS) (r NTR1): 14476 fluorescence units

B2: cGαq/z9: C. elegans Gαq with Gαz portion of the C-terminal tail extended to 9 amino acids (SEQ ID NO: 2) (protein)
chain: B1 chain with H347N
modifications: C. elegans
MAXIMAL SIGNAL (FLUORESCENCE UNITS) (h NPFF2): 4578 fluorescence units | MAXIMAL SIGNAL (FLUORESCENCE UNITS) (r GALR2): 4470 fluorescence units | MAXIMAL SIGNAL (FLUORESCENCE UNITS) (m 5HT5A): 270 fluorescence units | MAXIMAL SIGNAL (FLUORESCENCE UNITS) (h 5HT1A): 3139 fluorescence units | MAXIMAL SIGNAL (FLUORESCENCE UNITS) (h MCH): 3332 fluorescence units | MAXIMAL SIGNAL (FLUORESCENCE UNITS) (h kappa): 3472 fluorescence units | MAXIMAL SIGNAL (FLUORESCENCE UNITS) (h Y5): 6680 fluorescence units | MAXIMAL SIGNAL (FLUORESCENCE UNITS) (h D3): 121 fluorescence units | MAXIMAL SIGNAL (FLUORESCENCE UNITS) (r NTR1): 6111 fluorescence units
